Test results published in patent US20240150440A1 (LUMEN BIOSCIENCE, published 2024).

How the values were obtained:
[1] = biological target: T1, SARS-CoV-2 spike protein on pseudotyped lentivirus (Wuhan Reference Pseudovirus) (SARS-CoV-2, UniProt P0DTC2 14-1273); assay: cell-based or functional assay
[2] = biological target: T2, recombinant SARS-CoV-2 RBD with C-terminal AviTag (SARS-CoV-2, UniProt P0DTC2 319-541); assay: ELISA, competition with coated ACE2-Fc for RBD [Cont. 5]
[3] = biological target: T3, SARS-CoV-2 Alpha Variant RBD (SARS-CoV-2 Alpha variant); assay: ELISA, RBD coated
T3 construct: domain: RBD; coated on ELISA plates

[4] = biological target: T4, SARS-CoV-2 Beta Variant RBD (SARS-CoV-2 Beta variant); assay: ELISA, RBD coated
T4 construct: domain: RBD; coated on ELISA plates

[5] = biological target: T5, SARS-CoV-2 Gamma Variant RBD (SARS-CoV-2 Gamma variant); assay: ELISA, RBD coated
T5 construct: domain: RBD; coated on ELISA plates

[6] = biological target: T6, SARS-CoV-2 Delta Variant RBD (SARS-CoV-2 Delta variant); assay: ELISA, RBD coated
T6 construct: domain: RBD; coated on ELISA plates

[7] = biological target: T1, SARS-CoV-2 spike protein on pseudotyped …; assay: cell-based or functional assay; remark: listed apart in the source
[8] = biological target: T1, SARS-CoV-2 spike protein on pseudotyped …; assay: cell-based or functional assay; remark: listed apart in the source
[9] = biological target: SARS-CoV-2 Gamma Variant spike protein on pseudotyped lentivirus (SARS-CoV-2 Gamma variant); assay: cell-based or functional assay
[10] = biological target: T1, SARS-CoV-2 spike protein on pseudotyped …; assay: cell-based or functional assay; remark: listed apart in the source
[11] = biological target: T2, recombinant SARS-CoV-2 RBD with …; assay: ELISA, competition with coated ACE2-Fc for RBD [Cont. 4]
[12] = biological target: T2, recombinant SARS-CoV-2 RBD with …; assay: BLI, biotinylated RBD on streptavidin biosensors; OR: over-range [Cont. 4]
[13] = biological target: SARS-CoV-2 Delta Variant spike protein on pseudotyped lentivirus (SARS-CoV-2 Delta variant); assay: cell-based or functional assay
[14] = biological target: T1, SARS-CoV-2 spike protein on pseudotyped …; assay: cell-based or functional assay; remark: listed apart in the source
[15] = biological target: T1, SARS-CoV-2 spike protein on pseudotyped …; assay: cell-based or functional assay; remark: listed apart in the source
[16] = biological target: T2, recombinant SARS-CoV-2 RBD with …; assay: BLI, biotinylated RBD on streptavidin biosensors [Cont. 4]

B1: PP847 MBP-R5E-D1-H6 (VHH)
VHH: QVQLVESGGGLVQPGGSLRLSCAASGFEFSTSAMHWYRQAPGKQREWVARITSGGSDNYGDSVKGRFTISRDNAKNTVYLQMNSLKPEDTAVYYCAAYVGTDNYGYDYWGQGTQVTVSS
notes: Form: Monomer
- infectivity % under 10 ug/mL VHH treatment [1]: 77.1%
- IC50 [2]: 2.9 nM

B2: PP935 MBP-5HVZ-S3b-E11-H6 (VHH)
VHH: QVQLVESGGGLVQPGGSLRLSCAASGDIYSQSAMAWYRQAPGKEREFVAAITTTGSRSYKDSVKGRFTISRDNAKNTVYLQMNSLKPEDTAVYYCAAFAVRSSSVSDAYDYWGQGTQVTVSS
notes: Form: Dimer
- EC50 [3]: 0.47 nM
- EC50 [4]: 343 nM
- EC50 [5]: 167 nM
- EC50 [6]: 151 nM
- infectivity % under 10 ug/mL VHH treatment [1]: 48.9%
- Pseudovirus neutralization IC50 [7]: 34.2 nM
- Pseudovirus inhibition IC50 [Cont. 8] [8]: 68.4 nM

B3: PP1097 MBP-5HVZ-PAPA-RN-5-H6 (VHH)
VHH: QVQLVESGGGLVQPGGSLRLSCAASGSSFRILAMHWYRQAPGKNREWVAVITSNGNTYYADSVKGRFTISRDNAKNTVYLQMNSLKPEDTAVYYCNADTLDLDDGATYNYWGQGTQVTVSS
- EC50 [3]: 0.3 nM
- EC50 [4]: 95.4 nM
- EC50 [5]: 58.6 nM
- EC50 [6]: 244 nM
- infectivity % under 10 ug/mL VHH treatment [1]: 18.6%
- Pseudovirus neutralization IC50 [7]: 27.3 nM
- Pseudovirus inhibition IC50 [Cont. 8] [8]: 54.5 nM

B4: PP1143 MBP-5HVZ-PAPA-R2b-D5-H6 (VHH)
VHH: QVQLVESGGGLVQPGGSLRLSCAASGYADEINMVHWYRQAPGKGREFVAAIASGGSTFYADSVKGRFTISRDNAKNTVYLQMNSLKPEDTAVYYCAAIPRPSLSYAHDYAYWGQGTQVTVSS
notes: Form: Dimer
- infectivity % under 10 ug/mL VHH treatment [1]: 0.09%
- Pseudovirus neutralization IC50 [7]: 0.301 nM
- Pseudovirus neutralization IC50 [9]: 3.13 nM
- Pseudovirus inhibition IC50 [10]: 0.6 nM

B5: PP837 MBP-R5D-B2-H6 (VHH)
VHH: QVQLVESGGGLVQPGGSLRLSCAASGSIWSIAFMSWYRQAPGKGREWVAAITTGNDEAYADSVKGRFTISRDNAKNTVYLQMNSLKPEDTAVYYCAANTYERTPDGRTFSYWGQGTQVTVSS
notes: Form: Monomer
- infectivity % under 10 ug/mL VHH treatment [1]: 77.6%
- IC50 [11]: 3.7 nM
- Kd [12]: ~2350 nM

B6: PP1100 MBP-5HVZ-PAPA-RN-14-H6 (VHH)
VHH: QVQLVESGGGLVQPGGSLRLSCAASGENFSGNLVHWFRQAPGKAREGVATVTSTGSGYYADSVKGRFTISRDNAKNTVYLQMNSLKPEDTAVYYCAAKHQKGEIPYYDWGQGTQVTVSS
notes: Form: Dimer
- EC50 [3]: 0.35 nM
- EC50 [6]: 46.5 nM
- infectivity % under 10 ug/mL VHH treatment [1]: 17.2%
- Pseudovirus neutralization IC50 [7]: 6.95 nM
- Pseudovirus inhibition IC50 [Cont. 8] [8]: 13.9 nM

B7: PP1148 MBP-5HVZ-PAPA-R5a-C5-H6 (VHH)
VHH: QVQLVESGGGLVQPGGSLRLSCAASGDIFSINALHWFRQAPGKQREEVAAITSGGSTGYADSVKGRFTISRDNAKNTVYLQMNSLKPEDTAVYYCAAQQARGGLDSDYWGQGTQVTVSS
notes: Form: Dimer
- EC50 [3]: 0.33 nM
- EC50 [4]: 30.5 nM
- EC50 [5]: 9.06 nM
- EC50 [6]: 0.22 nM
- infectivity % under 10 ug/mL VHH treatment [1]: 5.95%
- Pseudovirus neutralization IC50 [7]: 15.7 nM
- Pseudovirus neutralization IC50 [13]: 0.53 nM
- Pseudovirus inhibition IC50 [Cont. 2] [14]: 4.7 nM

B8: PP1136 MBP-4B0F-PAPA-R5a-C5-H6 (VHH)
VHH: B7 VHH
notes: Form: Heptamer
- infectivity % under 10 ug/mL VHH treatment [1]: 1.53%
- Pseudovirus neutralization IC50 [7]: 0.05 nM
- Pseudovirus inhibition IC50 [Cont. 2] [14]: 0.35 nM

B9: PP848 MBP-R5E-G2-H6 (VHH)
VHH: QVQLVESGGGLVQPGGSLRLSCAASGTIKSINAMHWFRQAPGKAREFVASIGSNGAKSYSDSVKGRFTISRDNAKNTVYLQMNSLKPEDTAVYYCTALITVAESDDYDYWGQGTQVTVSS
notes: Form: Monomer
- infectivity % under 10 ug/mL VHH treatment [1]: 81.9%
- IC50 [2]: 2.1 nM

B10: PP1152 MBP-5HVZ-PAPA-R5d-B6-H6 (VHH)
VHH: QVQLVESGGGLVQPGGSLRLSCAASGRILAANIVHWYRQAPGKEREGVAGITSGGGSYYADSVKGRFTISRDNAKNTVYLQMNSLKPEDTAVYYCNALGLGQSSLYRSADPYDSWGQGTQVTVSS
notes: Form: Dimer
- infectivity % under 10 ug/mL VHH treatment [1]: 4.64%
- Pseudovirus neutralization IC50 [7]: 3.87 nM
- Pseudovirus inhibition IC50 [Cont. 4] [15]: 0.85 nM

B11: MBP-5HVZ-R5D-B6-H6 (VHH)
VHH: B10 VHH
notes: dimer
- Pseudovirus inhibition IC50 [Cont. 4] [15]: 3.26 nM
- IC50 [11]: 15.7 nM

B12: PP1151 MBP-5HVZ-PAPA-R5d-B5-H6 (VHH)
VHH: QVQLVESGGGLVQPGGSLRLSCAASGSRDSIVAMHWYRQAPGKGREGVAGITSRWVTYYADSVKGRFTISRDNAKNTVYLQMNSLKPEDTAVYYCNAPVYYDTEWYDIWGQGTQVTVSS
notes: Form: Dimer
- infectivity % under 10 ug/mL VHH treatment [1]: 35.6%
- Pseudovirus neutralization IC50 [7]: 15.3 nM
- Pseudovirus inhibition IC50 [Cont. 4] [15]: 43.7 nM

B13: MBP-5HVZ-R5D-B5-H6 (VHH)
VHH: B12 VHH
notes: dimer
- Pseudovirus inhibition IC50 [Cont. 4] [15]: 3.25 nM
- IC50 [11]: 53.7 nM

B14: PP833 MBP-R5C-F6-H6 (VHH)
VHH: QVQLVESGGGLVQPGGSLRLSCAASGQTNSILAMHWYRQAPGKQREAVATITSGSNSTYADSVKGRFTISRDNAKNTVYLQMNSLKPEDTAVYYCAARNGKLSPKANQRLYWGQGTQVTVSS
notes: Form: Monomer
- infectivity % under 10 ug/mL VHH treatment [1]: 86.2%
- Kd [16]: 100 nM

B15: PP831 MBP-R5C-F3-H6 (VHH)
VHH: QVQLVESGGGLVQPGGSLRLSCAASGTIPSINYTAWYRQAPGKQRELVASLTSGDNRYYTDSVKGRFTISRDNAKNTVYLQMNSLKPEDTAVYYCNAKTVGSSYRDSYNYWGQGTQVTVSS
notes: Form: Monomer
- infectivity % under 10 ug/mL VHH treatment [1]: 81.2%
- IC50 [11]: 151 nM
- Kd [12]: ~5370 nM

B16: PP1149 MBP-5HVZ-PAPA-R5a-E5-H6 (VHH)
VHH: QVQLVESGGGLVQPGGSLRLSCAASGYDFDILRMAWFRQAPGKEREMVAAITSAESVNYEDSVKGRFTISRDNAKNTVYLQMNSLKPEDTAVYYCATYDYTDDYGYASWGQGTQVTVSS
notes: Form: Dimer
- EC50 [3]: 3.01 nM
- EC50 [4]: 58 nM
- EC50 [5]: 134 nM
- infectivity % under 10 ug/mL VHH treatment [1]: 25.5%
- Pseudovirus neutralization IC50 [7]: 37.3 nM
- Pseudovirus inhibition IC50 [Cont. 2] [14]: 74.7 nM

B17: PP836 MBP-R5D-A1-H6 (VHH)
VHH: QVQLVESGGGLVQPGGSLRLSCAASGSISSYNAMHWFRQAPGKQREWVAGLTSSGSDGYVDSVKGRFTISRDNAKNTVYLQMNSLKPEDTAVYYCNAFSYHTYSRYDFWGQGTQVTVSS
notes: Form: Monomer
- infectivity % under 10 ug/mL VHH treatment [1]: 55%
- Kd [16]: 527 nM
- IC50 [11]: 6.2 nM

B18: PP834 MBP-R5C-G2-H6 (VHH)
VHH: QVQLVESGGGLVQPGGSLRLSCAASGSATSINRMAWVRQAPGKEREWVAVIDSGGYTYYADSVKGRFTISRDNAKNTVYLQMNSLKPEDTAVYYCNAVPVTTDKTPMYQYWGQGTQVTVSS
notes: Form: Monomer
- infectivity % under 10 ug/mL VHH treatment [1]: 89.2%
- IC50 [11]: 184 nM
- Kd [12]: ~2120 nM

B19: MBP-5HVZ-R5C-G2-H6 (VHH)
VHH: B18 VHH
notes: dimer
- Kd [16]: 29.6 nM
- IC50 [11]: 121 nM
